In paper PMC12443421:

Key:
[1] = target: T1, KDM5A-K152E (UniProt P29375 1-801, K152E); test: EMSA; Nucleosome EMSA: 100 nM nucleosome, 50 mM HEPES pH 7.5, 50 mM KCl, 1 mM BME, 0.01% Tween-20, 0.01% BSA, 5% sucrose, 1 h on ice, gel at 4 C; DNA EMSA: 100 nM DNA, TE with 10% glycerol, gel at 4 C; settings: protein: recombinant; tags: 6xHis removed by TEV; blunt
T1 sequence: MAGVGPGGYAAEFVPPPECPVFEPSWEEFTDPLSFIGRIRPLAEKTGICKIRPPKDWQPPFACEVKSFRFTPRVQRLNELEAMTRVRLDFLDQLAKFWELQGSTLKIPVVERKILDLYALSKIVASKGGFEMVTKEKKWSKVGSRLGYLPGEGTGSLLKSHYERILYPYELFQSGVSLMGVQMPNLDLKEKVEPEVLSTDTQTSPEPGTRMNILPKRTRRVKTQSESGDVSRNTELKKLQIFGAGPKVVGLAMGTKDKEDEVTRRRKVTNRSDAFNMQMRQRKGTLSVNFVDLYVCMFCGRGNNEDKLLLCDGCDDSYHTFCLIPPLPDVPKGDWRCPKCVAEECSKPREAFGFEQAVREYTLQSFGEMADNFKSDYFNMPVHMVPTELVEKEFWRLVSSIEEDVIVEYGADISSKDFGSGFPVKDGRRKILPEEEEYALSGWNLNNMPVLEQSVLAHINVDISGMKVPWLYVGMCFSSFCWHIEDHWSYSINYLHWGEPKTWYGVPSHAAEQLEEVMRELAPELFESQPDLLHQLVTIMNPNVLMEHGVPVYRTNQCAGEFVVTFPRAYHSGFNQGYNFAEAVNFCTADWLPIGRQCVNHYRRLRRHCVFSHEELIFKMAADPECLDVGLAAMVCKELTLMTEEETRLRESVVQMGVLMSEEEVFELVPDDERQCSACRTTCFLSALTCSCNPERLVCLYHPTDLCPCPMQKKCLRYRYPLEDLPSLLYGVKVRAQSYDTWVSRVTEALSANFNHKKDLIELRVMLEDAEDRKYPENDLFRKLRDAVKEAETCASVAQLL

[2] = target: T2, KDM5A-MutR (UniProt P29375 1-801, R210A;R217A;R219A;R220A;R232A;R264A;R265A;R266A;R271A;R280A;R282A); test: as above; settings: protein: recombinant; tags: 6xHis removed by TEV; blunt
T2 sequence: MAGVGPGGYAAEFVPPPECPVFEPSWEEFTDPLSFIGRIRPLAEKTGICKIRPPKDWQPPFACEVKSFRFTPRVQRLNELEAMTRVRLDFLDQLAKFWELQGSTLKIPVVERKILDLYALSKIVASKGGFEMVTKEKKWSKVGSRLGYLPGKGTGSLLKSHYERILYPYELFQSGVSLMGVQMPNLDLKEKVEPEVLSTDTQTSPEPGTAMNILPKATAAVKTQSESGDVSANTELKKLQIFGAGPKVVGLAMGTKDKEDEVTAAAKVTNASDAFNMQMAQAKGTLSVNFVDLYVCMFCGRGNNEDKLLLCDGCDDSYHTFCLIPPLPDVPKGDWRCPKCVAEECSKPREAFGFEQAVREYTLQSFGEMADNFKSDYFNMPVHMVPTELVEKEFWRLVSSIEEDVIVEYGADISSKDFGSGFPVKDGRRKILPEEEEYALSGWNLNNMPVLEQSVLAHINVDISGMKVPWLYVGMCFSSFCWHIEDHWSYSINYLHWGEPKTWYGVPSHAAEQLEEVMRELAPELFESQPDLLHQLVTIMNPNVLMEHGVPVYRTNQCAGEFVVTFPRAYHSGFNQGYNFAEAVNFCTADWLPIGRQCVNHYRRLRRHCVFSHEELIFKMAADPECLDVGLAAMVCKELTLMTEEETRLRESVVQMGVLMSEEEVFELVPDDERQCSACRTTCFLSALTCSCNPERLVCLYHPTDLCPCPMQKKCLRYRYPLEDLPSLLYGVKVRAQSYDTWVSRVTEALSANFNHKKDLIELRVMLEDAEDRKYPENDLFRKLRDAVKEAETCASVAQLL

B1: ARID-C1 (dsDNA)
DNA 1: GGGCTCCCGCCCCACGAAAAG
DNA 2: CTTTTCGTGGGGCGGGAGCCC
binding signal [1]: ~3 fold lower affinity than KDM5A-CAT
binding signal [2]: ~3 fold lower affinity than KDM5A-CAT
